In PMC12711577:
One block for each molecule: values may come before it.

Legend:
[1] = biological target: DDM1 N terminus (1–148) (Arabidopsis thaliana) (UniProt Q9XFH4); experiment: pull-down; in vitro pulldown of recombinant CDCA7α N terminus (1-136) with DDM1 N terminus (1-148); blots quantified, averages of nine (CDCA7α mutations) and five (DDM1 mutations) replicates
[2] = biological target: DDM1 N terminus (1–148) with K102E and K120E (Arabidopsis thaliana) (UniProt Q9XFH4); experiment: as above
[3] = biological target: T1, CDCA7α N terminus (1–136); experiment: pull-down (GST pulldown, anti-His western blot, quantified); conditions: chain shown with the change; n = 5 pulldown replicates; parent: est. 98; read off a plot
T1 chain: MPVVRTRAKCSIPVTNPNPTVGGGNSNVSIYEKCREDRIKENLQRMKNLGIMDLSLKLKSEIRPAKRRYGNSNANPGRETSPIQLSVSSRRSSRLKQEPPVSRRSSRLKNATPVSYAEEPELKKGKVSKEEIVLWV

binding relative to the WT [1]: 50 % of the WT
Molecule: CDCA7α N terminus (1–136) with E32K, E41K, E61K and I62A (domain or fragment)

loss of binding relative to the WT [2]: 50 % loss
Molecule: CDCA7α N terminus (1–136) (domain or fragment)

response [3]: 4
B1: DDM1 N terminus (1–148), Q9XFH4 K102E; K120E; F116A; I124A (protein)
chain: MVSLRSRKVIPASEMVSDGKTEKDASGDSPTSVLNEEENCEEKSVTVVEEEILLAKNGDSSLISEAMAQEEEQLLKLREDEEKANNAGSAVAPNLNETQFTELDELLTQTQLYSEALLEEMEDATINGIESESQKAEPEKTGRGRKRK
